# Experimental data as given in article PMC13393415, “The bacterial SOS response promotes the expression of the transposase encoded by ISCR mobile genetic elements”.
# T1: His6-LexA (Escherichia coli) (UniProt P0A7C2)
# T1 sequence: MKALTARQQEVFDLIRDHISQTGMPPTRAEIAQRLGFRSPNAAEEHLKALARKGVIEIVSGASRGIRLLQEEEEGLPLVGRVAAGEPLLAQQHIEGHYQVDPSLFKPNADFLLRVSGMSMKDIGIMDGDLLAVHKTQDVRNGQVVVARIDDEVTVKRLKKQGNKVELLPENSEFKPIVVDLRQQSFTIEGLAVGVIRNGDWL
# Columns and labels:
# [1] = biological target: T1, His6-LexA (Escherichia coli); experiment: EMSA; settings: 10 mM HEPES pH 8, 10 mM Tris-HCl pH 8, 50 mM KCl, 1 mM EDTA; on ice 20 min; 40 ng DNA, 0-600 ng LexA in 10 uL; 6% native Tris-glycine PAGE, SYBR Green
# His6-LexA = His6-LexA (Escherichia coli, UniProt P0A7C2 1-202); experiment: EMSA; 10 mM HEPES pH 8, 10 mM Tris-HCl pH 8, 50 mM KCl, 1 mM EDTA; on ice 20 min; 40 ng DNA, 0-600 ng LexA in 10 uL; 6% native Tris-glycine PAGE, SYBR Green; settings: protein: recombinant; tags: N-terminal His6; blunt
molecule,measurement,setting,value
CAACCGGTAGTGGCTGATAACAACTCGTGAGGGCTATTGCGGGTTAAGCATTTAGCGATGTCTAGGGCCAGACTGGACGTCTGAACGCAAGCCGCTGATACTGTACATAACCACAGTATCAGCGGAGGATACCCATGTCGCTGGCAAGGAACGCCACGGCGAGTCAATCGCCCACTCAAACAAACGGTTACGAACGCCACCAACCCGACCAGACGCTG (double strand) [Prcr1],binding,[1],binds
CCGGAATTCGGGAGTGACGGGCACTGGCTGGCAATGTCTAGCAACGGCAGGCATTTCGGCTGAGGGTAAAAGAACTTTCCGCTAAGCGATAGACTGTATGTAAACACAGTATTGCAAGGACGCGGAACATGCCTCATGTGGCGGCCAGGACGGCCAGCCGGGATCGGGATACTGGTCGTTACCAGAGCCACCGACCCGAGCAAACCCTT (double strand) [Prcr2],binding,[1],binds
Prcr8 (dsDNA) DNA 1: GGCGACGGTTCGGGCCTTGTGCTTTGCGTACCCAAACAATCGCCGCAGAATACTGTGCATTTGTACAGCATTCATGTCAGCCACTTCCAAGCCCAAGCTCTACAACCCACGCCACCCCGA DNA 2: TCGGGGTGGCGTGGGTTGTAGAGCTTGGGCTTGGAAGTGGCTGACATGAATGCTGTACAAATGCACAGTATTCTGCGGCGATTGTTTGGGTACGCAAAGCACAAGGCCCGAACCGTCGCC,binding result,His6-LexA,binds
"Prcr8 L (dsDNA, LexA box mutated (terminal ACAG to AACT)) DNA 1: GGCGACGGTTCGGGCCTTGTGCTTTGCGTACCCAAACAATCGCCGCAGAATACTGTGCATTTGTAACTCATTCATGTCAGCCACTTCCAAGCCCAAGCTCTACAACCCACGCCACCCCGA DNA 2: TCGGGGTGGCGTGGGTTGTAGAGCTTGGGCTTGGAAGTGGCTGACATGAATGAGTTACAAATGCACAGTATTCTGCGGCGATTGTTTGGGTACGCAAAGCACAAGGCCCGAACCGTCGCC",binding result,His6-LexA,no binding
